From publication doi:10.1101/2021.06.01.446150

What was measured:
[1] = molecular target: endogenous hGOAT of prostate cancer cells (human (endogenous in 22Rv1 and LNCaP)) (UniProt Q96T53); assay: confocal imaging of fluorescent ligand binding and uptake by cells
[2] = molecular target: human ghrelin O-acyltransferase (hGOAT), FLAG-tagged, wild type (human) (UniProt Q96T53)

percent of cells exhibiting ligand binding [1]: 100%
inhibition of hGOAT activity by ligand 15 [2]: 17 nM
Substance: H-GS-Dap-Nal-1-LSPTK(SulfoCy5)-NH2 (ligand 15) (peptide)
